Experimental data: patent US20110257102A1 (CASE WESTERN RESERVE UNIVERSITY, published 2011)
Several values for one entry are separate records, joined by “and”; a condition that tells them apart may be missing. Identical values can stand only once.

B1: GST-tagged FLNa domain 21 (other)
chain: LGEGGAHKVRAGGPGLERAEAGVPAEFSIWTREAGAGGLAIAVEGPSKAEISFEDRKDGSCGVAYVVQEPGDYEVSVKFNEEHIPDSPFVVPV
notes: domain: domain 21
B2: GST-tagged FLNa domain 20 (other)
chain: VKVTGEGRVKESITRRRRAPSVANVGSHCDLSLKIPEISIQDMTAQVTSPSGKTHEAEIVEGENHTYCIRFVPAEMGTHTVSVKYKGQHVPGSPFQFTV
notes: domain: domain 20
B3: GST-tagged FLNa domain 10 (other)
chain: VPCFDASKVKCSGPGLERATAGEVGQFQVDCSSAGSAELTIEICSEAGLPAEVYIQDHGDGTHTITYIPLCPGAYTVTIKYGGQPVPNFPSKLQV
notes: domain: domain 10
B4: GST-tagged FLNa domain 17 (other)
chain: DYVNCGHVTAYGPGLTHGVVNKPATFTVNTKDAGEGGLSLAIEGPSKAEISCTDNQDGTCSVSYLPVLPGDYSILVKYNEQHVPGSPFTA
notes: domain: domain 17
B5: GST-tagged FLNa domain 18 (other)
chain: RVTGDDSMRMSHLKVGSAADIPINISETDLSLLTATVVPPSGREEPCLLKRLRNGHVGISFVPKETGEHLVHVKKNGQHVASSPIPVVI
notes: domain: domain 18
B6: GST-tagged FLNa domain 23 (other)
chain: GHGGDPGLVSAYGAGLEGGVTGNPAEFVVNTSNAGAGALSVTIDGPSKVKMDCQECPEGYRVTYTPMAPGSYLISIKYGGPYHIGGSPFKAKV
notes: domain: domain 23
B7: GST-tagged FLNa domain 19 (other)
chain: SEIGDASRVRVSGQGLHEGHTFEPAEFIIDTRDAGYGGLSLSIEGPSKVDINTEDLEDGTCRVTYCPTEPGNYIINIKFADQHVPGSPFS
notes: domain: domain 19
B8: GST-tagged FLNa domain 11 (other)
chain: EPAVDTSGVQCYGPGIEGQGVFREATTEFSVDARALTQTGGPHVKARVANPSGNLTETYVQDRGDGMYKVEYTPYEEGLHSVDVTYDGSPVPSSPFQVPV
notes: domain: domain 11
B9: GST-tagged FLNa domain 24 (other)
chain: PGPADASKVVAKGLGLSKAYVGQKSSFTVDCSKAGNNMLLVGVHGPRTPCEEILVKHVGSRLYSVSYLLKDKGEYTLVVKWGDEHIPGSPYRVVVP
notes: domain: domain 24
B10: GST-tagged FLNa domain 22 (other)
chain: SPSGDARRLTVSSLQESGLKVNQPASFAVSLNGAKGAIDAKVHSPSGALEECYVTEIDQDKYAVRFIPRENGVYLIDVKFNGTHIPGSPFKIRV
notes: domain: domain 22

Biological target: filamin A (FLNa) of human tumour cell lines (endogenous) (human) (UniProt P21333)
Assay: cell-based or functional assay

**Q.** Which inhibition of cellular motility of A7 cells (wound-healing assay) does the source give for KKRPK-PrP-GPI-PSS synthetic peptide here?
**A.** The inhibition of cellular motility of A7 cells (wound-healing assay) was 50% and 60%.

Biological target: recombinant pro-PrP^23-253 (human, UniProt P04156 23-253)
Assay: in vitro pull-down with mAb 8H4 and protein G beads, anti-GST immunoblot

**Q.** Does B1 bind?
**A.** Result: binds

**Q.** Does B2 bind?
**A.** Result: binds

**Q.** Does B3 bind?
**A.** Result: binds

**Q.** Does B4 bind?
**A.** Result: binds

**Q.** Does B5 bind?
**A.** Result: binds

**Q.** Does B6 bind?
**A.** Result: binds

**Q.** Does B7 bind?
**A.** Result: no binding

**Q.** Does B8 bind?
**A.** Result: no binding

**Q.** Does B9 bind?
**A.** Result: no binding

**Q.** Does B10 bind?
**A.** Result: no binding
